Measurements from paper PMC3771946.

What was measured:
Assay in all cases: co-IP
[1] = target: Cx43-Y230H+ΔY265AY+ΔP283PGYKLV-GFP (S1+2+3) (rat) (UniProt P08050)
[2] = target: untagged Cx43-Y230H+ΔY265AY+ΔP283PGYKLV (S1+2+3) (rat) (UniProt P08050)
[3] = target: untagged Cx43-Y230H+F268A+Y286H (S1+2+3) (rat) (UniProt P08050)
[4] = target: Cx43-F268A+Y286H-GFP (S2+3) (rat) (UniProt P08050)
[5] = target: untagged Cx43-ΔY265AY+ΔP283PGYKLV (S2+3) (rat) (UniProt P08050)
[6] = target: untagged Cx43-F268A+Y286H (S2+3) (rat) (UniProt P08050)
[7] = target: Cx43-ΔY265AY+ΔP283PGYKLV-GFP (S2+3) (rat) (UniProt P08050)
[8] = target: Cx43-Y230H+F268A+Y286H-GFP (S1+2+3) (rat) (UniProt P08050)

Measured: amount coprecipitated, % of wild type, with m16 (% of wild type)

clathrin (from UniProt Q00610 1-1675) (complex)
< 10: all assays above
